Tests used:
[1] = tested on: tau protein in brain homogenate; experiment: Capture ELISA on transgenic mouse brain lysates; format: binding; details: S1D12 mAb capture; WT, L1, L66+/- and L66+/+
Procedure: Mouse brain lysates were prepared from wildtype, Line 1, Line 66+/+ and Line 66+/− (Melis et al., 2015, all surplus from Charles River, part of study R0144). All animals were female, 7-8 months old except Line 66+/+ which were 5 months old. […] The L1 cDNA construct (FIG. 23) contains human tau cDNA coding for amino acid residues 296-390 with a signal sequence and related sequences in a murine Thy-1 expression cassette. For brain lysate preparation, half brains were sectioned into four and the individual sections were homogenised in 400 μl of ice cold RIPA buffer (Cell signalling Technology) containing protease and phosphatase inhibitors. Total protein concentrations for individual samples were established by BCA-assay and each sample was subsequently diluted to 1 mg/ml for future experiments.
For capture ELISA, 100 µL S1D12 capture mAb was used to coat a nunc 96 well Maxisorp plate at 1 μg/ml and incubated for 1 hour at 37° C. Plate was washed as previously and then blocked for 1 hour at 37° C., in 2% MPBS. Brain homogenate samples (50 ng total protein) from each mouse type were added to the first wells and double diluted across the plate in PBS. These samples were left to incubate at RT for 1 hour. Various detection scAbs encompassing epitopes of interest were then added to the plate at 1 μg/ml and incubated for 1 h at RT. […]

htau40 = htau40 (Homo sapiens, UniProt P10636); experiment: Biacore X100 SPR of anti-tau mAbs on immobilised htau40; format: binding; details: mAb, Table 27, immobilised hT40
Chain of htau40 (P10636 1-441 isoform P10636-8): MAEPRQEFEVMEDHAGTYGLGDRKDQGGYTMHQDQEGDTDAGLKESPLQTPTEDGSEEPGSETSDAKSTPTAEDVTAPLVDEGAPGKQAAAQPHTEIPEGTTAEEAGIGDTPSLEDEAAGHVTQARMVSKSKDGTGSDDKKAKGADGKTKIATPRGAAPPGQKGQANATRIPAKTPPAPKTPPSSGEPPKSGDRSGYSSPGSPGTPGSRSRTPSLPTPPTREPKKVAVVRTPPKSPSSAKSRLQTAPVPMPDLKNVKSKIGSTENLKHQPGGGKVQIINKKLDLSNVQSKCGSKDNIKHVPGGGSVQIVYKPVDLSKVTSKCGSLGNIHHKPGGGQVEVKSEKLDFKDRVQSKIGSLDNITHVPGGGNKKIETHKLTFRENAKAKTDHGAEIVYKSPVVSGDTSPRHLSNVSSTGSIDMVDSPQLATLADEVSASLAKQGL
Summary of the method: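 htau40 amine-coupled to a CM5 chip (~250 RU); mAb injected at 0.78–25 nM in HBS-EP+ at 30 μL/min, 120 s association, 600 s dissociation, glycine pH 1.5 regeneration. Kinetics and affinity from 1:1 binding fit with reference-cell subtraction.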

hT40 = hT40 (Homo sapiens, UniProt P10636); experiment: Biacore X100 SPR, scAb captured via anti-HuCk, hT40 as analyte; format: binding
Chain of hT40 (P10636 1-441 isoform P10636-8): as above
Summary of the method: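 Captured scAb on anti-HuCk CM5 surface (flow cell 1 as reference) in HBS-EP+, capture set for theoretical RMax 100 RU; hT40 injected multi-cycle (0.15625–100 nM) or single-cycle (6.25–100 nM), 120 s association, 420 s dissociation, glycine pH 2.0 regeneration. Kinetics and affinity from 1:1 binding model fit.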

human tau and mouse tau = experiment: Western blot of WT, L66+/+ and L1+/+ mouse brain homogenates; format: binding; details: 20 μg protein, 5-month-old mice
Procedure: Protein equivalent to 20 μg from each brain extract was separated using 4-20% bis-tris gels and run in 1×MES buffer.
A band is detected in each sample (WT, L66^+/+ and L1^+/+) with an apparent molecular weight of approximately 55 kDa. This band most likely corresponds to endogenous mouse tau which is of a similar size. In the L66^+/+ samples, a second band running at approximately 68 kDa is also detected. The presence of numerous other bands indicates proteolytic truncation of tau within brain homogenates.

tau fragments in plasma = experiment: Capture ELISA on transgenic mouse plasma; format: binding; details: detection scAb, Line66 transgenic model
Procedure: Plasma samples from WT, L1, L66+/− and L66^+/+ of various ages (1.5-9 months) were taken as described. Mice were terminally anaesthetized using an overdose of sodium pentobarbital and blood was collected through cardiac puncture through a Plastipak syringe pre-rinsed with heparinised saline heparin (10 U/ml) (Heparin sodium salt; Sigma-Aldrich) and transferred into a plastic vial containing lithium heparin anticoagulant (Sarstedt Ltd.) Blood samples, kept on ice for no more than 30 minutes, were centrifuged to obtain plasma at 2000× g for 5 minutes at 6° C. Plasma samples were stored at −20° C.
For mouse plasma capture ELISA, 100 μL capture mAb was coated to the bottom of a black nunc 96 well ‘maxisorp’ plate at 2.5 μg/ml and incubated for 1 hour at 37° C. After washing and blocking as normal, several known standard solutions were set up in triplicate starting at 20 ng/ml of the desired protein before double diluted in the remaining wells. Mouse samples were added to wells in duplicate with a blank in between each sample group. Line1 plasma was diluted 1:10 before addition to plate to account for its high concentration while other samples were diluted 1:2 to account for potential matrix effects. […] The ELISA was developed using SuperSignal ELISA Femto Substrate (Thermo Scientific) and total luminescence was read on Clariostar Plus plate reader (BMG Labtech). […]

[2] = target: hT40, dGA, dGAE and truncated tau fragments/peptides (Homo sapiens, UniProt P10636); experiment: Binding ELISA for epitope mapping with truncated tau proteins and biotinylated 13mer peptides; details: scAbs used as negative controls in thioflavin T assay; data not shown
Chain of hT40, dGA, dGAE and truncated tau fragments/peptides (P10636 614-708): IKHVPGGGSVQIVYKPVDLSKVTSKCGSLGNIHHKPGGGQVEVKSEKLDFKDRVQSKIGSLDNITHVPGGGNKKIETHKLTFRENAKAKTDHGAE
Procedure: A series of binding ELISA was performed using various truncated versions of the tau protein and 13mer peptide libraries spanning the entire hT40 molecule for mapping the epitopes of anti-tau scAbs (Full list of protein antigens used is given in Table 14). In general, ELISA plates were coated with 1 μg/ml hT40 or dGA or dGAE or other truncated versions of the protein and in the case of biotinylated peptides, plates were coated with 5 μg/ml Streptavidin followed by 1 μg/ml biotinylated peptide. The plates were blocked with 2% MPBS and scAb samples added at desired starting concentrations and double diluted across the plate. Binding was detected using anti-Human C Kappa HRP conjugated secondary antibody and the resulting immunoreaction was developed and absorbance values measured as described above.
Similarly, dGA binding ‘NS’, ‘S’ and ‘M’ group scAbs were subjected to further antigen binding ELISA using shorter tau proteins and biotinylated 13mer peptides as shown below (FIGS. 10A-F) and (FIGS. 11A-R).
For anti-tau mAb SPR measurements (Biacore X100™) and epitope mapping, the same methodologies described above (see Example 16) were followed.

[3] = '3a' and '3b' scAbs, Table 25, hT40

Molecule | tau detection in mouse brain homogenate [1] | ka (htau40) [M⁻¹ s⁻¹] | kd (htau40) [s⁻¹] | ka (hT40; scAb, Table 23, T441 (hT40)) [M⁻¹ s⁻¹] | kd (hT40; scAb, Table 23, T441 (hT40)) [s⁻¹] | bands detected in western blot of WT, L66+/+ and L1+/+ brain homogenates (human tau and mouse tau) | cross reaction with endogenous mouse tau protein (tau fragments in plasma) | ka (hT40; [3]) [M⁻¹ s⁻¹] | kd (hT40; [3]) [s⁻¹] | cross reactivity to dGAE [2]
CB7: anti-tau clone, SEQ ID NO: 364 (protein, CB7 amino acid sequence) scFv: QVQLQESGPSLVKPSQTLSLTCTVSGFSLTNYRVGWVRQAPGKALEWVSNIRSGGTTWYNPALKSRLSITADTSKSQVSLSLSSVTTEDTAVYYCARDSSGDLYAYDYWGPGLLVTVSSEGKSSGASGESKVDDQAVLTQPSSVSRSLGQSVSMTCSGSSSNVGYGNYMAWFQQVPGSAPKLLIYGATSRASGVPDRFSGSRSGNTATLTISSLQAEDEADYYCASYDSTSGGVFGSGTRLTVLG | hT40 tau was specifically detected in L66 samples | 2.568e+06 | 0.009451 | 133400 | 0.0006936 | show specificity for human tau | does not cross react with endogenous mouse tau protein | – | – | –
3aD3: anti-tau clone, SEQ ID NO: 422 (protein, 3aD3 amino acid sequence) scFv: QVQLQESGPSLVKPSQTLSLTCTVSGFSLTSNGVGWVRRAPGKVPEWVGDISSGGKVYGHPALKSRLSITRDTSKSQVSLSVSSVTSEDTAVYYCVRCRDGGVSYGYDSDYWGPGLLVTVSSEGKSSGASGESKVDDQAVVTQPSSVSKSLGQSVSITCSGSSSNVGYGDYVGWFQQVPGSAPKLLIYGVTERASGVPDRFSGSRSGNTATLTISSIQAEDEADYYCASYDDSSGGIFGSGTRLTVLG | – | – | – | – | – | – | – | 544400 | 0.01038 | no cross reactivity to dGAE

Reference: patent publication US12624096B2, “Anti-tau antibodies and methods of use thereof” (GTInvent Limited, priority 2020, dated 2026)
